26 sequences from the supplement of paper PMC9732359 can be followed below.

± gives the uncertainty stated by the source.

The data set is described as follows: protein stability index of a GFP-peptide fusion (yeast GPS) (PSI 1-4); higher = more stable; sorted into four equal gates, so the index is relative within each strain. The gist of the method:
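Tiled 17-residue peptides from yeast proteins were fused downstream of GFP on a plasmid that also expresses Cherry, and the pooled library was carried in yeast. Mid-log cultures grown in leucine-free medium were sorted into four equal gates by GFP/Cherry fluorescence ratio. Plasmids from each gate were PCR-amplified and Illumina-sequenced, and reads were assigned to strains by barcodes. Each peptide's protein stability index is the sum, over gates, of the gate's read frequency multiplied by its gate number.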

Consider MKLKLMIVYYKDAISFI [YCS4], for which the protein stability index is, setting by setting: (doa10∆) 1.82 ± 0.053; (pdr5∆) 1.49 ± 0.049; (san1∆) 1.8 ± 0.091; (ubr1∆) 1.73 ± 0.042.
For MKLVPSIPPATIETFNE [RPB5] the same measures were 2.41 ± 0.053, 2.41 ± 0.06, 2.11 ± 0.051 and 2.57 ± 0.049.
Take MKMDKSPTESYSDIGGL [RPT2]: the protein stability index reads like this: (doa10∆) 3.21 ± 0.096; (pdr5∆) 3.4 ± 0.096; (san1∆) 3.38 ± 0.055; (ubr1∆) 3.05 ± 0.059.
In the case of MKPEVEQELAHILLTEL [FAS2], the protein stability index worked out at 3.006 ± 0.028 (doa10∆), 2.988 ± 0.028 (pdr5∆), 2.753 ± 0.025 (san1∆) and 2.722 ± 0.024 (ubr1∆).
MKPSDNISTNTNIHEPQ [SSN2] yielded a protein stability index (doa10∆) of 3.19 ± 0.042, a protein stability index (pdr5∆) of 3.08 ± 0.051, a protein stability index (san1∆) of 3.1 ± 0.042 and a protein stability index (ubr1∆) of 3.06 ± 0.052.
For MKVEIDSFSGAKIYPGR [RPL24A] the same measures were 3.35 ± 0.072, 3.45 ± 0.12, 3.25 ± 0.08 and 3.22 ± 0.1.
The sequence MKWDFAKDIKGYGTQKI [PRE4] displayed a protein stability index (doa10∆) of 2.15 ± 0.064, a protein stability index (pdr5∆) of 1.85 ± 0.057, a protein stability index (san1∆) of 1.84 ± 0.12 and a protein stability index (ubr1∆) of 1.4 ± 0.048.
Turning to MKWSAIPFQTLYRSIES [YJL039C/NUP192], the protein stability index reads like this: (doa10∆) 1.53 ± 0.046; (pdr5∆) 1.91 ± 0.058; (san1∆) 1.7 ± 0.11; (ubr1∆) 1.91 ± 0.031.
MKYIQTEQQIEVPEGVT [RPL9A]: the protein stability index stood at 2.54 ± 0.089 (doa10∆), 2.75 ± 0.082 (pdr5∆), 2.83 ± 0.11 (san1∆) and 2.77 ± 0.053 (ubr1∆).
For the sequence MKYLAAYLLLNAAGNTP [RPP2A], the protein stability index turned out to be 1.88 ± 0.031 (doa10∆), 2.05 ± 0.033 (pdr5∆), 1.9 ± 0.05 (san1∆) and 2.32 ± 0.036 (ubr1∆).
As for MKYLAAYLLLVQGGNAA [RPP2B], the protein stability index is, setting by setting: (doa10∆) 1.53 ± 0.051; (pdr5∆) 1.78 ± 0.038; (san1∆) 1.78 ± 0.069; (ubr1∆) 2 ± 0.065.
For MLASQANGGSTIISPHK [DSN1], in that order: 3.42 ± 0.17, 3.43 ± 0.14, 3.45 ± 0.073 and 3.28 ± 0.15.
Consider MLCTADTPEGEACGLVK [RET1], for which the protein stability index reads like this: (doa10∆) 1.47 ± 0.1; (pdr5∆) 1.77 ± 0.14.
Regarding MLLEEQLEYKRGEIREI [MED7], the protein stability index (pdr5∆) was 2.92 ± 0.28 and the protein stability index (san1∆) came to 2.69 ± 0.29.
MLLGTDLCSLKPYVDRF [DIS3]: the protein stability index is, setting by setting: (doa10∆) 2.62 ± 0.06; (pdr5∆) 2.68 ± 0.066; (san1∆) 2.66 ± 0.067; (ubr1∆) 2.92 ± 0.052.
Consider MLLLNDSVENSSNILED [SRB8], for which the protein stability index turned out to be 2.65 ± 0.078 (doa10∆), 2.57 ± 0.078 (pdr5∆), 2.58 ± 0.065 (san1∆) and 2.38 ± 0.061 (ubr1∆).
On to MLMSKIGDVDGLIVNPV [POP5], for which the protein stability index reads like this: (doa10∆) 2.57 ± 0.051; (pdr5∆) 2.58 ± 0.056; (san1∆) 2.47 ± 0.041; (ubr1∆) 2.42 ± 0.04.
For MLSILEIFKKGYIKNNK [POP6] the same measures were 2.63 ± 0.11, 2.84 ± 0.091, 3 ± 0.097 and 3.08 ± 0.1.
MLWNLAAKKAMYTLSAQ [ASC1]: the protein stability index (doa10∆) was 2.79 ± 0.069, the protein stability index (pdr5∆) came out at 2.45 ± 0.062, the protein stability index (san1∆) was found to be 2.06 ± 0.073 and the protein stability index (ubr1∆) turned out to be 2.18 ± 0.077.
MMENYQNISPVYSVDPL [PRP8]: the protein stability index stood at 2.08 ± 0.049 (doa10∆), 1.88 ± 0.058 (pdr5∆), 2.21 ± 0.064 (san1∆) and 1.74 ± 0.044 (ubr1∆).
The sequence MMMQQQLKNVQLDSYLV [MED2] registered a protein stability index (doa10∆) of 2.21 ± 0.037, a protein stability index (pdr5∆) of 2.45 ± 0.061, a protein stability index (san1∆) of 1.69 ± 0.079 and a protein stability index (ubr1∆) of 2.17 ± 0.032.
With MNGNTNANTVFAGSNNQ [YOR098C/NUP1], the protein stability index is 2.63 ± 0.12 (doa10∆), 3.27 ± 0.12 (pdr5∆), 3.31 ± 0.16 (san1∆) and 3.26 ± 0.085 (ubr1∆).
Regarding MNGRSLTYAQQQLNKQR [SNF6], the protein stability index by setting is: (doa10∆) 3.28 ± 0.26; (pdr5∆) 3.36 ± 0.14; (san1∆) 3.02 ± 0.15; (ubr1∆) 3.23 ± 0.15.
Consider MNKDQAEKYQERSLRQK [SNM1], for which the protein stability index runs as follows: (doa10∆) 3.3 ± 0.089; (pdr5∆) 3.25 ± 0.089; (san1∆) 3.35 ± 0.069; (ubr1∆) 3.53 ± 0.093.
In turn, MPPKKSWRNITNLSGGE [SMC4] came in with a protein stability index (doa10∆) of 2.69 ± 0.12, a protein stability index (pdr5∆) of 2.85 ± 0.14, a protein stability index (san1∆) of 2.64 ± 0.12 and a protein stability index (ubr1∆) of 2.96 ± 0.1.
Regarding MPPKQQLSKAAKAAAAL [RPS25A], the protein stability index is 1.73 ± 0.048 (doa10∆), 1.87 ± 0.05 (pdr5∆), 1.76 ± 0.062 (san1∆) and 1.83 ± 0.042 (ubr1∆).
